Data published in article PMC3223699 (Cell Death & Disease, 2011).
Ends that are not written are not given here.

What was measured:
[1] = system: P. falciparum; details: asexual stage P. falciparum; ref [30], [31]; cited from earlier work
[2] = system: P. falciparum 3D7; assay: Recovery of treated parasite culture after peptide removal; format: cell-based, Plasmodium falciparum; details: 50 μM (~EC50), removed at 4 h, then grown 24 h
[3] = molecular target: recombinant PfClpQ, mature region (38-170 aa) (P. falciparum); assay: SPR

## CCN(CC)CCCC(C)Nc1ccnc2cc(Cl)ccc12 (centres unmarked) [chloroquine]
[1]
  apoptosis-like features (in words): loss of mitochondrial membrane potential (Δψm), activation of caspase-like cytseine proteases and nuclear DNA fragmentation

## FIKQYDLKKYII [FI-peptide]
[2]
  growth inhibition after peptide removal at 4 h: < 20%

## FIKQYDLKKYII [FI-peptide, 12-amino-acid synthetic peptide corresponding to the C terminus of PfClpY]
[3]
  Kd: 62.4 µM
  koff: 0.00976 s⁻¹
  kon: 157 M⁻¹ s⁻¹
